One molecule from patent US20250154279A1 (BEIGENE, published 2025) can be followed below.

One assay deals with T1, huCD137-his.
T1 construct: The sheet prints only 'huCD137-his'; also called human CD137-ECD-his
T1 extracellular domain with C-terminal His tag: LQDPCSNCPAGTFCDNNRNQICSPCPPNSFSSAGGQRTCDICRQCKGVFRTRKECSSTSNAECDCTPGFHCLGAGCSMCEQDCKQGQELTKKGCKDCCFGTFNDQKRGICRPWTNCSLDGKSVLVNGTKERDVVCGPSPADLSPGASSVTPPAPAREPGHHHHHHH
Briefly: antigen ELISA, coated huCD137-his, detection with HRP anti-human IgG, single antibody concentration not given; competitor where added: 20 ug/ml CD137L. The method, then:
(§1) For antigen ELISA, a Maxisorp immunoplate was coated with antigens and blocked with 3% BSA (w/v) in PBS buffer (blocking buffer). Monoclonal VHH antibodies were blocked with blocking buffer for 30 minutes and added to wells of the ELISA plate for 1 hour. After washes with PBST, bound antibodies were detected using HRP-conjugated anti-human IgG antibody (Sigma, A0170) and 3,3′,5,5′-tetramethylbenzidine substrate (Cat.: 00-4201-56, eBioscience, USA). Ligand competition was also applied in a ELISA assay.
(An ELISA detects its analyte on a solid surface through an enzyme-linked reagent.)

The target of the next assay is T2, human CD137 ECD-mIgG2a (human).
T2 construct: also called huCD137
The assay can be described thus: antigen ELISA, coated huCD137-mIgG2a, detection with HRP anti-human IgG, single antibody concentration not given; competitor where added: 20 ug/ml CD137L. The method, then:
as §1

The next assay addresses T3, mouse CD137 (mouse, UniProt P20334 24-187, limits assumed).
T3 construct: Coated antigen in ELISA; construct not described
T3 sequence (looked up): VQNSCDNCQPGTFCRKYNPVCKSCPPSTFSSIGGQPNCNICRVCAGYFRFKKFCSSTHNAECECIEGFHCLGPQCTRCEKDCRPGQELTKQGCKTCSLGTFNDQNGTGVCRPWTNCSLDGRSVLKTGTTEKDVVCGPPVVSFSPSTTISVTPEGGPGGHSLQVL
Briefly: antigen ELISA. As for the experimental part:
as §1

B1: BGA-9612 VHH-Fc (camelid anti-huCD137 VHH fused at the N terminal of human IgG1 Fc-null with a G4S linker) (VHH)
VHH: QVQLVESGGGTVQPGDSLRLSCAASGRTFDNYAVGWFRQAPGKERQYVGTYWSGYAHYGDFENNRFTISRDNAKNTVYLQMDNLKPEDTAVYYCAISLKYPMATVTPDYQGQGTQVTVSS
B1: the binding result is on record as “binds” with huCD137-his, “binds” with human CD137 ECD-mIgG2a and “no binding” with mouse CD137.
